{
  "source": "patent US20090253622A1",
  "about": "“USE OF TLR3 AGONISTS FOR THE TREATMENT OF NEURODEGENERATIVE DISORDERS” (Nederlandse Organisatie voor toegepast - …, priority 2006, published 2009)",
  "molecules": {"B1": {"name": "stathmin: cytosolic phosphoprotein of 149 amino acids (SEQ ID NO: 1); purified recombinant human stathmin from a commercial source (protein)", "chain": "MASSDIQVKELEKRASGQAFELILSPRSKESVPEFPLSPPKKKDFSLEEIQKKLEAAEERRKSHEAEVLKQLAEKREHEKEVLQKAIEENNNFSKMAEEKITHKMEANKENREAQMAAKLERLREKDKHIEEVRKNKESKDPADETEAD", "modifications": "Human; (44)..(138) Stathmin-like alpha helix domain", "notes": "purified recombinant human stathmin from a commercial source"}},
  "key": {"[1]": {"test_system": "peripheral blood mononuclear cells (PBMC)", "assay": "CXCL8 accumulation in culture of human PBMC", "format": "cell-based", "conditions": "24 h, varying doses, two donors", "source_text": "(§1) Peripheral blood mononuclear cells (PBMC) were isolated from two healthy blood donors and from part of the cells, CD14^+ monocytes were isolated by positive selection using magnetic beads coated with an antibody against CD14. The purified CD14^+ monocytes were subsequently cultured for 5 days in the presence of IL-4 and granulocyte-macrophage colony stimulating factor (GM-CSF). These growth factors induce differentiation of monocytes into pre-dendritic cells (pre-DC) within this time frame. At this stage part of the pre-DC culture was stimulated with a mixture of IL-1β and TNF-α for another 2 days in culture, thus stimulating final maturation of the cells into plasmacytoid dendritic cells (DC).\n(§2) Using this differentiation method, separate populations of PBMC, pre-DC and DC were generated and after washing of the cells to remove all previously used stimuli, cells were subsequently re-cultured in fresh medium and tested for their response to either poly I:C, stathmin or LPS. Accumulation of CXCL8 in the culture medium over a 24-h period was used as a measure for cellular activation."}, "[2]": {"conditions": "purified recombinant protein in buffers similar to culture media; Steinmetz and colleagues; cited from earlier work"}, "human adult astrocytes": {"test_system": "human adult astrocytes", "assay": "cDNA array profiling of cytokine, chemokine and growth factor genes in human adult astrocytes", "format": "cell-based", "protocol": "Adult human astrocytes from post-mortem subcortical white matter samples were isolated and cultured as previously described (Bsibsi et al., J Neuropath Exp Neurol 61:1013-1021 [2002]). […] When indicated astrocytes were stimulated with 50 μg/mL poly I:C (Amersham Pharmacia Biotech, Piscataway, N.J.) or 200 ng/mL LPS (Sigma-Aldrich, Steinheim, Germany) to activate TLR3 and TLR4, respectively. […] It should be noted that contaminants in the commercial LPS preparation could possibly lead to some level of TLR2 activation in addition to TLR4 by the LPS preparation used but not of TLR3. When stimulated with cytokines, astrocytes were supplied with TNF-α, IFN-γ, IL-1β (each at 500 U/mL), IL-4 (at 250 U/mL), IL-6 (at 200 U/mL), IL-12 (at 50 ng/mL), IL-10 (at 20 ng/mL) and TGF-β (at 12.5 ng/mL) (PeproTech, Rocky Hill, N.Y.). […] Endothelial cells (UVEC) were isolated from umbillical cords and cultured on gelatin-coated dishes in M199 supplemented with 20 nM HEPES, 10% human serum, 10% heat-inactivated NBCS, 150 mg/mL ECGF, 5 U/mL heparin, 100 IU/mL penicillin and […] streptomycin.\nAnalysis of the mRNA profile of astrocytes was performed by hybrid selection of ^32P-labeled cDNA on Clontech human cytokine/chemokine Atlas® arrays as previous described (Meeuwsen et al., Glia 43:243-253 [2003]). Hybridization signals for each of the 268 cytokine, chemokine and growth factor (receptor) genes were calculated as the mean of duplicate measurements, corrected for background intensity and quantified using software provided by the manufacturer. Relative expression was calculated by dividing these hybridization signals by the mean signal for all nine housekeeping reference genes on the corresponding array.\nGene profiling was performed using astrocytes from four different control donors.\nAstrocytes were isolated from post mortem human brain tissue samples and cultured under conditions as described elsewhere in this application. One part of the culture was stimulated with 50 μg/ml stathmin, the second with 50 μg/ml poly I:C and a third was left untreated to served as a reference control. Following another 48 h RNA was isolated from each culture and ^32P-labeled cDNA was prepared by reverse transcription. Subsequent hybrid selection of these ^32P-labeled cDNA samples was performed on Clontech Atlas® arrays containing selective probes for 268 cytokines, chemokines and growth factors, and various receptors for these mediators. All hybridization signals were calculated as the mean of duplicate measurements, corrected for background intensity and quantified using software provided by the manufacturer. Relative signal strength was next calculated by dividing these averaged hybridization signals by the mean signal for all nine housekeeping reference genes that were also present on each array as a reference."}, "TLR2": {"molecular_target": "T1, TLR2 (Homo sapiens, UniProt O60603)", "T1 construct": "expressed in transfected cells; host or cells: HEK293", "T1 sequence (O60603 21-784, species assumed)": "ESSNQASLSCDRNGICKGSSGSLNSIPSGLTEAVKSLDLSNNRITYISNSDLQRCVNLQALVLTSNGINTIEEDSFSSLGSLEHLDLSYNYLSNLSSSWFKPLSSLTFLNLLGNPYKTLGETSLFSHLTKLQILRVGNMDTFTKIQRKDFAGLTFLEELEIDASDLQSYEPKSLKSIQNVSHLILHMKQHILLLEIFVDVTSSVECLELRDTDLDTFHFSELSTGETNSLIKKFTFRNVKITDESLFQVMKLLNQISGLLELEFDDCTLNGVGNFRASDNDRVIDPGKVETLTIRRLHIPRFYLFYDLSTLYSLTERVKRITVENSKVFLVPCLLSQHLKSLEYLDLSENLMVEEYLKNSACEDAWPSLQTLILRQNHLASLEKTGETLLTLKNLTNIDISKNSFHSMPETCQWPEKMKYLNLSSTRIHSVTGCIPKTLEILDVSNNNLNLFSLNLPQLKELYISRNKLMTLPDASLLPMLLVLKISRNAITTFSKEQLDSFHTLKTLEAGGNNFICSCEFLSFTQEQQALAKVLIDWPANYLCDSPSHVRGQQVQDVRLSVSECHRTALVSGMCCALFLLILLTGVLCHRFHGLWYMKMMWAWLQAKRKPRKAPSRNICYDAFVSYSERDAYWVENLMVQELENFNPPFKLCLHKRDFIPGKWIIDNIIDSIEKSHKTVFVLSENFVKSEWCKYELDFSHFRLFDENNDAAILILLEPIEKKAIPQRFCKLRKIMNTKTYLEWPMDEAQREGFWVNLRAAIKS", "assay": "HEK293 transfectant cells, TLR2 activation", "format": "cell-based", "conditions": "at levels of at least 50 μg/mL", "protocol": "Additional control experiments using murine astrocytes or transfected HEK293 cells were performed essentially as described previously by several other research groups."}, "[3]": {"test_system": "plasmacytoid dendritic cells (DC)", "assay": "CXCL8 accumulation in culture of human mature plasmacytoid dendritic cells", "format": "cell-based", "conditions": "24 h, varying doses, two donors", "source_text": "as §1, §2"}, "[4]": {"test_system": "immature human plasmacytoid dendritic cells (pre-DC)", "assay": "Antibody-array profiling of 40 cytokines and chemokines in human pre-DC supernatants", "format": "cell-based", "conditions": "50 μg/ml, 48 h", "protocol": "To examine the effects of stathmin on the maturation and cytokine production of immature human plasmacytoid dendritic cells (pre-DC), such pre-DC were generated from samples of peripheral blood mononuclear cells by maturation of purified CD14^+ monocytes using GM-CSF and IL-4. The cells were subsequently exposed to 50 μg/ml stathmin and after 48 h, culture supernatants were collected and the accumulation of 40 different cytokines ands chemokines was evaluated by antibody-array profiling using a commercially available antibody array."}},
  "note": "“Also recorded” adds a separate entry of the source.",
  "data": [
    {"molecule": "B1", "values": [
      {"measurement": "CXCL8 accumulation in the culture medium", "setting": "[1]", "value": "substantial increase in CXCL8 accumulation"},
      {"measurement": "fraction structurally ordered into alpha helix", "setting": "[2]", "value": "40-60%"},
      {"measurement": "change in expression of genes encoding immune mediators and growth factors", "setting": "human adult astrocytes; 50 μg/ml, 48 h", "value": "comprehensive and marked change in expression"},
      {"measurement": "stathmin-induced mediators", "setting": "human adult astrocytes; astrocytes (TLR3 on the cell surface), qualitative summary", "value": "CNTF, LIF; also recorded: TSG-6, IL-9, IL10, IL-11, IL-5; also recorded: VEGF, VEGF-C, CXCL8; also recorded: CCL2, CCL3, CXCL9"},
      {"measurement": "response of HEK293 transfectant cells via TLR2", "setting": "TLR2", "value": "does not contain any endotoxin contaminants that trigger responses"},
      {"measurement": "CXCL8 accumulation in the culture medium", "setting": "[3]", "value": "substantial increase in CXCL8 accumulation"},
      {"measurement": "reduction of levels of the p70 subunit of IL-12", "setting": "[4]", "value": "two-fold"},
      {"measurement": "CXCL8 induction ratio", "setting": "[4]; vs untreated control", "value": "> 1.5"},
      {"measurement": "IL-10 induction ratio", "setting": "[4]; vs untreated control", "value": "> 1.5"},
      {"measurement": "MCP-1 induction ratio", "setting": "[4]; vs untreated control", "value": "> 1.5"},
      {"measurement": "p40 subunit of IL-12 induction ratio", "setting": "[4]; vs untreated control", "value": "> 1.5"}
    ]}
  ]
}
